Details in all cases: both partners purified
Experiment [1] concerns the target T1, human recombinant PDGFRα (human, UniProt P16234 24-1089).
T1 construct: platelet-derived growth factor receptor alpha, human, recombinant; also called PDGFRa; source: bought: R&D Systems
The experiment is described as follows: SPR; BIAcore 3000, 25 °C, CM5 chip; receptor immobilised by amine coupling (~200-500 R.U.); ligand injected at 10, 20 and 40 nM, 30 uL/min, 10 min dissociation; HBS-EP pH 7.4 (10 mM HEPES, 3 mM EDTA, 150 mM NaCl, 0.005% TWEEN-20); angiopoietin-4 reference cell subtracted; global 1:1 Langmuir fit; χ2-to-Rmax > 1.0 or negative association curves taken as no true interaction. In general terms: SPR reads the build-up and loss of mass on a sensor chip optically.

In a further experiment the target is T2, human recombinant PDGFRβ (human, UniProt P09619 33-1106).
T2 construct: platelet-derived growth factor receptor beta, human, recombinant; source: bought: R&D Systems
Described as above.

Experiment [2] has as its target T3, human recombinant PDGFRα (human, UniProt P16234 24-528).
T3 construct: Platelet-derived growth factor receptor alpha, human; also called PDGFRa; source: bought: R&D Systems (Cat #322-PR-050/CF), human recombinant
The experiment is described as follows: SPR; BIAcore 3000, 25 °C, CM5 chip; receptor immobilised by amine coupling (~200-500 R.U.); ligand injected at 40, 20 and 10 nM in HBS-EP pH 7.4 (10 mM HEPES, 3 mM EDTA, 150 mM NaCl, 0.005% TWEEN-20); angiopoietin-4 reference cell subtracted; global 1:1 Langmuir fit; χ^2-to-Rmax < 1.0 taken as a true interaction.

In the next experiment the target is T4, human recombinant VEGFR2 (human, UniProt P35968 20-764).
T4 construct: Vascular endothelial growth factor receptor 2 (KDR), human; source: bought: R&D Systems (Cat. #357-KD-050/CF), human recombinant
Described as above.

T1 sequence (P16234 24-1089): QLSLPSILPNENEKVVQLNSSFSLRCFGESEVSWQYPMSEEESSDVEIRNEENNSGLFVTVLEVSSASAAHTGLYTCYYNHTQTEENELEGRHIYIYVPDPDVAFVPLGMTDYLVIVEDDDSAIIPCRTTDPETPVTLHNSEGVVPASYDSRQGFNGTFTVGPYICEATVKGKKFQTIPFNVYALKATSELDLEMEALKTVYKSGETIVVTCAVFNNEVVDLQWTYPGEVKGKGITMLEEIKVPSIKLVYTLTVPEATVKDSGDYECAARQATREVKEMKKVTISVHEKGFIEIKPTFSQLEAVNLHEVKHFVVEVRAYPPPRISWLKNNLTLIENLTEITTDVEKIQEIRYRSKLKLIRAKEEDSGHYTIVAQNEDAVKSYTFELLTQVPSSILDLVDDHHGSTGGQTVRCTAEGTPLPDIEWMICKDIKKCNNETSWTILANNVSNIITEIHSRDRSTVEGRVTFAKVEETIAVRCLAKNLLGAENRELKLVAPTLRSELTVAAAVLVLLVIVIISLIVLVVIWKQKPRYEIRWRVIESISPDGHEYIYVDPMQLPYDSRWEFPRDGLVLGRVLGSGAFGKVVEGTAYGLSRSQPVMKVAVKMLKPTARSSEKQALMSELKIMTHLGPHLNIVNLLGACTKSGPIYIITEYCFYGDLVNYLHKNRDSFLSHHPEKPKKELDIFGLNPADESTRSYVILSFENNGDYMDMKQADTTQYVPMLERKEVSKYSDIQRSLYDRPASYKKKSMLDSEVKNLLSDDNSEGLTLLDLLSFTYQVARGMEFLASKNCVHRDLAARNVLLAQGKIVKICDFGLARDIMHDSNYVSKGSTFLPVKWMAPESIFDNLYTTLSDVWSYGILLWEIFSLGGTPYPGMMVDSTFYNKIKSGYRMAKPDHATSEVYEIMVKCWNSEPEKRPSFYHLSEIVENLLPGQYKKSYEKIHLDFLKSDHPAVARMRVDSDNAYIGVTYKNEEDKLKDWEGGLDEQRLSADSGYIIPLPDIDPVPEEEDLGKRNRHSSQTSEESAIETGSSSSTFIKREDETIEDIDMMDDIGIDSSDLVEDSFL
T3 sequence (P16234 24-528): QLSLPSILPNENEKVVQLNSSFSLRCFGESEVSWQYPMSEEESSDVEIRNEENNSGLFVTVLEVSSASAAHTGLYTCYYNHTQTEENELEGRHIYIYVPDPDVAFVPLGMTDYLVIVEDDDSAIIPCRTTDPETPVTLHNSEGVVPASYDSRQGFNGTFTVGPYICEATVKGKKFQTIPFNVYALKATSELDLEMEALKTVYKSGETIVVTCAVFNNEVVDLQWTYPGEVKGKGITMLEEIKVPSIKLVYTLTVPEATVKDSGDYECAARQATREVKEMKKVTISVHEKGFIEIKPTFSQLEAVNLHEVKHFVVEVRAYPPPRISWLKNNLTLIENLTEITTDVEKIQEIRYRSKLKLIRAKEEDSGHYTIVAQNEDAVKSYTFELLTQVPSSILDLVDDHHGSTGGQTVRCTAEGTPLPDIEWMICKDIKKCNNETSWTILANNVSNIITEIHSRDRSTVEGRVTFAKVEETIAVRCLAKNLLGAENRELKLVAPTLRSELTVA
T2 sequence (P09619 33-1106): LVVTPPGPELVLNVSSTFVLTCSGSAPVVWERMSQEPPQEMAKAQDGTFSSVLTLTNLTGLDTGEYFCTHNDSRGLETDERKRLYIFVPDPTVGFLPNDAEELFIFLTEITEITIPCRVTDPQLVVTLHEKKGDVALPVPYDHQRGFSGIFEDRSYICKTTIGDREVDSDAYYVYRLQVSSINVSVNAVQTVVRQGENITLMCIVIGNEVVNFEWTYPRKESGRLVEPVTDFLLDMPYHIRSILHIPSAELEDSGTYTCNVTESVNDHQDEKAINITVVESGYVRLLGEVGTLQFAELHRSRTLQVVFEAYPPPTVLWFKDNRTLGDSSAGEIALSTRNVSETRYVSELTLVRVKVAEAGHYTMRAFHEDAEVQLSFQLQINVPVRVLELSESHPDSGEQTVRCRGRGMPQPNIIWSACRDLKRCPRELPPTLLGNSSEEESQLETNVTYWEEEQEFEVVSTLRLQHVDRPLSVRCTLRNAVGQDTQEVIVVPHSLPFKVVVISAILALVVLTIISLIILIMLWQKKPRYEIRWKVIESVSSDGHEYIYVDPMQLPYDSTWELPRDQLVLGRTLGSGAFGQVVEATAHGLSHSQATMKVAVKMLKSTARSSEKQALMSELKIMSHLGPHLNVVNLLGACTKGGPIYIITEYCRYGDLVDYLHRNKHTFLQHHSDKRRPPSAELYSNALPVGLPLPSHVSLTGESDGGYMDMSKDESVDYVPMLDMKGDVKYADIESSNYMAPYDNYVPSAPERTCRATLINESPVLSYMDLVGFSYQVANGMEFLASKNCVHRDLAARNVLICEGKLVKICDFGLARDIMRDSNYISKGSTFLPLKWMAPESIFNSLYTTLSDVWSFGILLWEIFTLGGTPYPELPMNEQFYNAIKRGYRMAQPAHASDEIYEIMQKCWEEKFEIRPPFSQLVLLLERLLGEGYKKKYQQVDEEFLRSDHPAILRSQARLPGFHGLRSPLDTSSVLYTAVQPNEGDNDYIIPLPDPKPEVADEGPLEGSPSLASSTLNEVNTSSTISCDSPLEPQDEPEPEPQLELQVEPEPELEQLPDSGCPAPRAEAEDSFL
T4 sequence (P35968 20-764): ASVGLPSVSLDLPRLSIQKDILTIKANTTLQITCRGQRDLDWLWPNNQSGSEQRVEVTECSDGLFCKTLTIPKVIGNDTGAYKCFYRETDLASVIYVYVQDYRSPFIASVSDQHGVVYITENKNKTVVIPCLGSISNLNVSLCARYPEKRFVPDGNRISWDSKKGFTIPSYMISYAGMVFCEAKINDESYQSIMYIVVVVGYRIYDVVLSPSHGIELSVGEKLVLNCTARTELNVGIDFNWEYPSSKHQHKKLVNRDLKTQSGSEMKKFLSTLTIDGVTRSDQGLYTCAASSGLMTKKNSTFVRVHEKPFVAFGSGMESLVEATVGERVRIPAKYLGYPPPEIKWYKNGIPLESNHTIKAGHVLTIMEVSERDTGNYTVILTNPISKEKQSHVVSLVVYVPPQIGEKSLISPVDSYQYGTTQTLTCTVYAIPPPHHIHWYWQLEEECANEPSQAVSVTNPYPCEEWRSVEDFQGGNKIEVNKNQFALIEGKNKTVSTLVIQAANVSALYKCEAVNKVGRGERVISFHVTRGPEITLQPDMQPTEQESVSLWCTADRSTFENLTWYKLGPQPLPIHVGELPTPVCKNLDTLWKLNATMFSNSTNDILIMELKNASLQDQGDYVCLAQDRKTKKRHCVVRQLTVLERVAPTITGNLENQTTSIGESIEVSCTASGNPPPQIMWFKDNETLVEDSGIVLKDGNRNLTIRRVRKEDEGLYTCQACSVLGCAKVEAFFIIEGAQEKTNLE

B1: human recombinant PDGF-CC (ligand)
chain: VVDLNLLTEEVRLYSCTPRNFSVSIREELKRTDTIFWPGCLLVKRCGGNCACCLHNCNECQCVPSKVTKKYHEVLQLRPKTGVRGLHKSLTDVALEHHEECDCVCRGSTGG
modifications: disulfide-linked homodimer; limits not given, active growth factor domain after cleavage at Arg234 taken by convention
For the molecule B1, in the experiment with human recombinant PDGFRα [1], the koff (as a rule, a measure of how fast the partners let go of each other) was 0.0002 s⁻¹ and the on-rate constant (kon) (commonly the rate constant with which the complex forms) was determined as 5000 M⁻¹ s⁻¹. Besides, in the experiment with human recombinant PDGFRβ, the off-rate constant (koff) is 0.0014 s⁻¹ and the association rate constant (kon) was 740000 M⁻¹ s⁻¹.

B2: human recombinant PDGF-CC (ligand, UniProt Q9NRA1 235-345, looked up)
chain: B1 chain
notes: Platelet-derived growth factor C, human; Homodimer by its name; source: bought: R&D Systems (Cat. #1687-CC-025), human recombinant
Consider B2, for which the dissociation constant Kd (in general, the free concentration of one partner at which half of the binding sites on the other are occupied at equilibrium, for simple one-to-one binding) with human recombinant PDGFRα [2] was found to be 3.4 nM.

B3: human recombinant PDGF-BB (ligand, UniProt P01127 82-190, looked up)
chain: SLGSLTIAEPAMIAECKTRTEVFEISRRLIDRTNANFLVWPPCVEVQRCSGCCNNRNVQCRPTQVQLRPVQVRKIEIVRKKPIFKKATVTLEDHLACKCETVAAARPVT
notes: Platelet-derived growth factor subunit B, human; Homodimer of B chains by its name; source: bought: R&D Systems (Cat. #220-BB-050), human recombinant
For B3, the results for the Kd with human recombinant PDGFRα [2] and in the experiment with human recombinant VEGFR2 were 420 nM and 37 nM, respectively.

These data come from article PMC5704011, “Discovery of High-Affinity PDGF-VEGFR Interactions: Redefining RTK Dynamics” (Scientific Reports, 2017).
